The numbers were not newly measured in patent US7931890B2, “Targeted combination immunotherapy of cancer and infectious diseases” (Immunomedics, Inc., priority 1996, dated 2011), which cites them from elsewhere.

One series deals with streptavidin (Streptomyces avidinii, UniProt P22629). The settings on record: streptavidin-biotin system; Rosebrough 1993; cited from earlier work.
The next series deals with T1, CEA (Homo sapiens, UniProt P06731).
T1 sequence (P06731 35-676): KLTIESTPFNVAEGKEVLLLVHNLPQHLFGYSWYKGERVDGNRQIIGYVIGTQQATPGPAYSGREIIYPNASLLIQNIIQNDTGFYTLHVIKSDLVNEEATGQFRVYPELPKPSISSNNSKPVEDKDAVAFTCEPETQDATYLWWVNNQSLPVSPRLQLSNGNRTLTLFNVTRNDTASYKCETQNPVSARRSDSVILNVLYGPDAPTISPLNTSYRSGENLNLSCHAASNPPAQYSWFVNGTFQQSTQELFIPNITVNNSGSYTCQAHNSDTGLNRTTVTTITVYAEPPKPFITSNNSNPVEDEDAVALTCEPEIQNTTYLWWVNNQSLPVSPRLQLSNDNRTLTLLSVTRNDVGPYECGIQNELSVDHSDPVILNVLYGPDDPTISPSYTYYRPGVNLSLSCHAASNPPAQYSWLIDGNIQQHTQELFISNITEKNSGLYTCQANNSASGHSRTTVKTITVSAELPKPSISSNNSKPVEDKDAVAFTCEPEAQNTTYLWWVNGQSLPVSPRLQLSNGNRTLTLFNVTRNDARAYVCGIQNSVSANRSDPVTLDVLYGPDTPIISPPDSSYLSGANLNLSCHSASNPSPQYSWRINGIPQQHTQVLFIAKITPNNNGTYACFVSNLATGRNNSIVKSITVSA
The settings on record: Hansen et al. 1993; cited from earlier work.

The conditions of series [1]: Rosebrough 1993; cited from earlier work.

Some results are limits rather than exact numbers.

Chain of streptavidin (P22629 25-183): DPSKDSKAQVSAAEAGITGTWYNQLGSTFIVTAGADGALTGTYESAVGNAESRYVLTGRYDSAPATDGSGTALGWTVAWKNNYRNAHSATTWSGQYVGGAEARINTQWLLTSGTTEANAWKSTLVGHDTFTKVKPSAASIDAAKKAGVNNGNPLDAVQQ

In the case of `O=C(O)CCCC[C@@H]1SC[C@@H]2NC(=O)N[C@@H]21` [biotin], on streptavidin, the Ka is given as 10^15 M^−1.
Consider MN-14: second generation CEA-antibody, for which, in the series with CEA, the “affinity for CEA relative to first generation NP-4” value is on record as “ten times more affinity”.
In the case of “avidin: biotin-binding protein found in egg whites”, the pI in series [1] is above 10.
